B1: chicken forkhead box O1 (FOXO1) wild-type [chicken] / Ran protein [chicken (endogenous in granulosa cells)] (parent)
chain 1: MAEAPQLVDIDPDFEPLPRPRSCTWPLPRPEFNPPSSATSSPAPSCGGQPDGAAAAGAAVAVAASGALSADFISNLCLVEESEDFALPPAAAAPPESAACRCGDFSAPEAGCRLHPPGPPPVPPVPPAVAALSPGPVAGQPRKSSSSRRNAWGNLSYADLITKAIESSPEKRLTLSQIYEWMVKSVPYFKDKGDSNSSAGWKNSIRHNLSLHSKFIRVQNEGTGKSSWWMLNPEGGKSGKSPRRRAASMDNNSKFAKSRGRAAKKKASLQSGQEGNGDSPGSQFSKWPASPSSHSNDDFDNWSTFRPRTSSNASTISGRLSPILPEQDDLGDGDVHSMVYPSSATKMTSTLPSLSEMSSSENMENLLDNLNLLSPNTSMTVSTQSSSAALMQQTPGYSFASSTTSICSPNPDYRKFTYAQASMNSLPQIPMQTLQDSKSSYGSMSQFNCPAGLLKELLTSDSPPHNDILASVDTGVSQAGGRALGQGVLMVTNSVMPTYGNQPPHNKMMNPNARPHQGHNQPTPAVNGRALSHTVNPMSHTSCLNRLSTVKTSLQVPMSHQMQMNAMNPYAPVNSCNGYGRVGIVSLHQEKLPSDLDDMLIERLDCDMESIIRNDLMDGETLDFNFDSVLPNQSFQHSVKTTTHSWVSG
chain 2: not shown

Variants of: B1
Assay: co-immunoprecipitation (IP FOXO1, WB Ran), band quantification
Settings: with Ran protein [chicken (endogenous in granulosa cells)]
[1] = with 740-Y-P, n = 3, read off a plot
[2] = with Ly294002, n = 3, read off a plot

| response [1] | response [2] | Variant |
| --- | --- | --- |
| 1.3 | 0.33 | chain 1 S311A |
| 1.2 | 0.28 | chain 1 S248A |
